Data from paper PMC9483561 (The Journal of Biological Chemistry, 2022).

Target: integrin α5β1 ectodomain (α5 F1–Y954/β1 Q1–D708) (UniProt P08648;P05556)
Test: fluorescence polarisation

integrin α5β1 ectodomain (α5 F1–Y954/β1 Q1–D708), sequence (P08648 42-995, chain 1 of 2): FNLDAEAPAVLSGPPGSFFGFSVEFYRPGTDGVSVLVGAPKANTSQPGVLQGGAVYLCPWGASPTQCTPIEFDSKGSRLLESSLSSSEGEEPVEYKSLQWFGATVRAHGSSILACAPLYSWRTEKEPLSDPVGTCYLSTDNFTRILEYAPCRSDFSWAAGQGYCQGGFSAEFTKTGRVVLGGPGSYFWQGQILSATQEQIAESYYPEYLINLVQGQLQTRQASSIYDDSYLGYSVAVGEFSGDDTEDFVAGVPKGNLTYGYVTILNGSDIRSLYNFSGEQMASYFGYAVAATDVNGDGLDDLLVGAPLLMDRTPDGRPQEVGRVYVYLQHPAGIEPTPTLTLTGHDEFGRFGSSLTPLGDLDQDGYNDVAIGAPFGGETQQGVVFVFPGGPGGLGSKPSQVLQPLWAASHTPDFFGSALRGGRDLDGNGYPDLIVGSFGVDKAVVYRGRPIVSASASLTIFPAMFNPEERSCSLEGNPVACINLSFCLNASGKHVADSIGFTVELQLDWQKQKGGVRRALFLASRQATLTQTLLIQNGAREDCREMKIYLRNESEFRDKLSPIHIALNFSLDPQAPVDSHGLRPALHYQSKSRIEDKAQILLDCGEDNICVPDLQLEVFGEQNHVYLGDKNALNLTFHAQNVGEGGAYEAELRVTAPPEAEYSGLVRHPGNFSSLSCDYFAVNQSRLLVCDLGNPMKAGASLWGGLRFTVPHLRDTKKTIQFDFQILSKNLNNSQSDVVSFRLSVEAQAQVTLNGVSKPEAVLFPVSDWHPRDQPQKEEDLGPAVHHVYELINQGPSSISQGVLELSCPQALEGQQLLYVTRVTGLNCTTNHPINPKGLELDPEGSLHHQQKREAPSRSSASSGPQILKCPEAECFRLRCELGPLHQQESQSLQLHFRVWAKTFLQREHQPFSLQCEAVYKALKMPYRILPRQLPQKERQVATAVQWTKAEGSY
integrin α5β1 ectodomain (α5 F1–Y954/β1 Q1–D708), sequence (P05556 21-728, chain 2 of 2): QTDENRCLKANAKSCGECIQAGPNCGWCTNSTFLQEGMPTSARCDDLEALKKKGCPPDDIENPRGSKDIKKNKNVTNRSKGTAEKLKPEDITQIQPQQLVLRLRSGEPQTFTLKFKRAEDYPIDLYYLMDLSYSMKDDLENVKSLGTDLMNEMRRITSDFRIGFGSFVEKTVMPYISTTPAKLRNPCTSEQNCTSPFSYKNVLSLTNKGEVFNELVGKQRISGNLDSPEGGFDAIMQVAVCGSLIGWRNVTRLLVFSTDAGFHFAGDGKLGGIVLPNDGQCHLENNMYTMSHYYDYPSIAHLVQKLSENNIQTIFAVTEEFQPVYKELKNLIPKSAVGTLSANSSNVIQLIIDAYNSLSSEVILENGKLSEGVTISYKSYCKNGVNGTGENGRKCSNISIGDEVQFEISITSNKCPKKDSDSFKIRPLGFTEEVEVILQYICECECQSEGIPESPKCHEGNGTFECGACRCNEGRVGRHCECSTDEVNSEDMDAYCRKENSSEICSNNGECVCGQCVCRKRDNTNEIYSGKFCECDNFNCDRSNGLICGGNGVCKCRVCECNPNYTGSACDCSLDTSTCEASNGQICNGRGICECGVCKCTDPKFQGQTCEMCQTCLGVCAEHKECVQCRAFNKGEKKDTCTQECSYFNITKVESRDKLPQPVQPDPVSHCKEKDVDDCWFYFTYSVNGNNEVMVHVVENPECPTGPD

B1: fibronectin fragment Fn10 (V1416–T1509) (domain or fragment)
chain: not shown
  binding result: binds
